Target: SARS-CoV-2 spike protein (original strain) (SARS-CoV-2, UniProt P0DTC2 P0DTC2:14-1273)
Test: flow

B1: SEQ ID NO: 14 aptamer (72 nt truncation of SEQ ID NO: 1) (ssRNA)
RNA: GGGAGAGCGGAAGCGUGCUGGGCCCCUUUGACCAUAGGAGGCAAGUCUUAUGUUCAAACUGGUCCAUAACCC
modifications: 2'-F pyrimidines
Kd: 20.7 nM

Reference: patent US20250207140 (published 2025)
